In paper PMC12350670 (2025) one finds Kd data, which are given here for one molecule.

The Kd is the constant that tells how readily two partners part at equilibrium.

Test [1] deals with H4-Fc (anti-FAP VNAR H4 fused to the Fc of human IgG1) (nurse shark (Ginglyomostoma cirratum)). The test can be described thus: BLI. (In general: In BLI a coated tip is dipped into the sample, and binding shifts an interference pattern.)
The target in test [2] is NGS2405-Fc (anti-FAP VNAR NGS2405 fused to the Fc of human IgG1) (nurse shark (Ginglyomostoma cirratum)). Nature of the test: BLI.

B1: recombinant mouse FAP (mFAP) (enzyme)
chain: MKTWLKTVFGVTTLAALALVVICIVLRPSRVYKPEGNTKRALTLKDILNGTFSYKTYFPNWISEQEYLHQSEDDNIVFYNIETRESYIILSNSTMKSVNATDYGLSPDRQFVYLESDYSKLWRYSYTATYYIYDLQNGEFVRGYELPRPIQYLCWSPVGSKLAYVYQNNIYLKQRPGDPPFQITYTGRENRIFNGIPDWVYEEEMLATKYALWWSPDGKFLAYVEFNDSDIPIIAYSYYGDGQYPRTINIPYPKAGAKNPVVRVFIVDTTYPHHVGPMEVPVPEMIASSDYYFSWLTWVSSERVCLQWLKRVQNVSVLSICDFREDWHAWECPKNQEHVEESRTGWAGGFFVSTPAFSQDATSYYKIFSDKDGYKHIHYIKDTVENAIQITSGKWEAIYIFRVTQDSLFYSSNEFEGYPGRRNIYRISIGNSPPSKKCVTCHLRKERCQYYTASFSYKAKYYALVCYGPGLPISTLHDGRTDQEIQVLEENKELENSLRNIQLPKVEIKKLKDGGLTFWYKMILPPQFDRSKKYPLLIQVYGGPCSQSVKSVFAVNWITYLASKEGIVIALVDGRGTAFQGDKFLHAVYRKLGVYEVEDQLTAVRKFIEMGFIDEERIAIWGWSYGGYVSSLALASGTGLFKCGIAVAPVSSWEYYASIYSERFMGLPTKDDNLEHYKNSTVMARAEYFRNVDYLLIHGTADDNVHFQNSAQIAKALVNAQVDFQAMWYSDQNHGISSGRSQNHLYTHMTHFLKQCFSLSD
modifications: biotin (EZ-link NHS-PEG4-biotin)
On to B1, for which the Kd is 14.2 nM in test [1] and 79.5 nM in test [2].
